Results reported in patent publication US7670806B2, “ADP-ribosyl acceptor hydrolase 3 (ARH3) polypeptides and methods of use” (The United States of America as represented by the …, priority 2005, dated 2010).
Changes are numbered by the printed parent chain. Names and notes keep the numbering of the source.

B1: ARH2: recombinant mouse or human ARH2, structurally related 39-kDa ADP-ribose-binding protein (protein, listed as Homo sapiens)
chain: MEKFKAAMLLGSVGDALGYRNVCKENSTVGMKIQEELQRSGGLDHLVLSPGEWPVSDNTIMHIATAEALTTDYWCLDDLYREMVRCYVEIVEKLPERRPDPATIEGCAQLKPNNYLLAWHTPFNEKGSGFGAATKAMCIGLRYWKPERLETLIEVSVECGRMTHNHPTGFLGSLCTALFVSFAAQGKPLVQWGRDMLRAVPLAEEYCRKTIRHTAEYQEHWFYFEAKWQFYLEERKISKDSENKAIFPDNYDAEEREKTYRKWSSEGRGGRRGHDAPMIAYDALLAAGNSWTELCHRAMFHGGESAATGTIAGCLFGLLYGLDLVPKGLYQDLEDKEKLEDLGAALYRLSTEEK
B2: human ARH3: human ARH3 amino acid sequence SEQ ID NO: 2, synthesized as GST-fusion product in E. coli (protein, listed as Homo sapiens)
chain: MAAAAMAAAAGGGAGAARSLSRFRGCLAGALLGDCVGSFYEAHDTVDLTSVLRHVQSLEPDPGTPGSERTEALYYTDDTAMARALVQSLLAKEAFDEVDMAHRFAQEYKKDPDRGYGAGVVTVFKKLLNPKCRDVFEPARAQFNGKGSYGNGGAMRVAGISLAYSSVQDVQKFARLSAQLTHASSLGYNGAILQALAVHLALQGESSSEHFLKQLLGHMEDLEGDAQSVLDARELGMEERPYSSRLKKIGELLDQASVTREEVVSELGNGIAAFESVPTAIYCFLRCMEPDPEIPSAFNSLQRTLIYSISLGGDTDTIATMAGAIAGAYYGMDQVPESWQQSCEGYEETDILAQSLHRVFQKS
modifications: GST fusion
B3: mouse ARH3: murine ARH3 amino acid sequence SEQ ID NO: 6 (protein, listed as Mus musculus)
chain: MAVAAAAAATAMSAAGGGGASAARSISRFRGCLAGALLGDCVGAVYEAHDTVSLASVLSHVESLEPDPGTPGSARTETLYYTDDTAMTRALVQSLLAKEAFDEVDMAHRFAQEYKKDPDRGYGAGVITVFKKLLNPKCRDVYEPARAQFNGKGSYGNGGAMRVAGISLAYSSVQDVQKFARLSAQLTHASSLGYNGAILQALAVHLALQGVSSSEHFLEQLLGHMEELEGDAQSVLDAKELGMEERPYSSRLKKVGELLDQDVVSREEVVSELGNGIAAFESVPTAIYCFLRCMEPHPEIPSTFNSLQRTLIYSISLGGDTDTIATMAGAIAGAYYGMEQVPESWQQSCEGFEETDVLAQSLHRVFQESS
B4: ARH3 (E261Q/E262Q): human ARH3 mutant E261Q/E262Q (SEQ ID NO: 3) (protein, listed as Homo sapiens)
chain: B2 chain with E261Q, E262Q
B5: ARH3 (E238Q/E239Q): human ARH3 mutant E238Q/E239Q (SEQ ID NO: 4) (protein, listed as Homo sapiens)
chain: B2 chain with E238Q, E239Q

What was measured:
[1] = Hydrolysis of O-acetyl-[14C]ADP-ribose by ARH proteins / PARG (RP-HPLC); assay type: biochemical; conditions: 1.5 pmol wild type or mutant human ARH3 or 20 mU PARG, 2 h at 30° C.; mouse ARH1, 2, 3
Method: FIG. 13A is a graph illustrating the results from incubation of 1.5 pmol of mouse ARH3 with or without 5 mM DTT and/or 10 mM MgCl2 as described in FIG. 11B with incubation for 1 h at 30° C. FIG. 13B is a graph illustrating the results from incubation of 1.5 pmol of wild type or mutant human (D77-78) ARH3 or 20 mU of PARG for 2 h at 30° C. *D77,78, assays incubated with 15 pmol of mutant human ARH3 (D77, D78).
FIG. 14A is a graph of the results from incubation with the indicated amount of mouse ARH1, 2, or 3 for 2 h at 30° C. FIG. 14B is a graph of the results from incubation with 230 pmol of mouse ARH1 at 30° C. for the indicated time.
Mouse ARH3 (2 pmol) and 2.5 μM O-acetyl-[^14C]ADP-ribose (5,000 cpm) in 200 μl of buffer containing 50 mM potassium phosphate (pH 7.0), 10 mM MgCl2 and 5 mM DTT were incubated for 2 h at 30° C., before separation of substrate and products using RP-HPLC as described below.
Hydrolysis of O-acetyl-[^14C]ADP-ribose catalyzed by ARH3. Assays containing the indicated concentration of O-acetyl-[^14C]-ADP-ribose (0.1 to 2 nmol, 1,000 to 20,000 cpm) and 1.5 pmol of ARH3 in 200 μl of buffer (50 mM KPO4 (pH 7.0), 10 mM MgCl2, 5 mM DTT) were incubated at 30° C. for 20 min. Substrate and products were separated using RP-HPLC. Amounts of product were corrected for ADP-ribose produced in the absence of ARH3 before calculation of hydrolysis rates.
Because O-acetyl-ADP-ribose was known to be hydrolyzed at alkaline pH Tanny and Moazed (2001), Proc Natl Acad Sci USA. 98(2):415-20, Epub Dec. 26, 2000), it was generated at pH 7.0 in the presence of [^14C-adenine] β-NAD, Sir2, and acetylated histone H3 peptide (FIG. 11A), and the products of Sir2 and ARH3 were analyzed using reverse-phase HPLC at the same pH (FIGS. 11A,B). The products of the ARH3-catalyzed reaction were also analyzed by high resolution-polyacrylamide gel electrophoresis (FIG. 11C). O-acetyl-[^14C]ADP-ribose hydrolase activity was time and ARH3 dependent (FIG. 12) and essentially completely dependent on Mg^2+ (FIG. 13A).
O-acetyl-ADP-ribose hydrolysis by ARH1 was time and ARH1 dependent (FIG. 14b).

[2] = Poly(ADP-ribose) hydrolysis (autoradiography, high resolution PAGE, HPLC); assay type: biochemical; conditions: for Poly(ADP-ribose) hydrolysis (in words): [32P]poly(ADP-ribose) or poly(ADP-ribose)PARP, autoradiography / PAGE / HPLC; for Release of [14C]ADP-ribose from [14C]poly(ADP-ribose)PARP relative to wild-type ARH3: 50 nM human ARH3 (wild-type or mutant), ~2 μM ADP-ribose, HPLC C18
Method: Poly(ADP-ribose) hydrolysis by autoradiography. [^32P]poly(ADP-ribose)PARP (500 ng of PARP with poly(ADP-ribose) was incubated (37° C., 2 h) with 2 μM ARH in 25 μl of 50 mM potassium phosphate buffer, pH 7.5, with or without 10 mM MgCl2 and/or 5 mM DTT. Reactions were stopped by adding 6 μl of 5× Laemmli buffer. Samples (20 μl) of proteins were separated by SDS-PAGE in 4-20% gels and transferred to nitrocellulose membranes that were exposed to X-ray film (Kodak) for 10 h.
Hydrolysis of poly(ADP-ribose) by PARG and ARH3. Purified [^32P] poly(ADP-ribose) (5.5×10^5 cpm, ˜300 nM ADP-ribose) was incubated for the indicated time at 37° C. in 25 μl of 50 mM potassium phosphate, pH 7.5, containing 10 mM MgCl2 and 5 mM DTT with enzyme or other additions as indicated and terminated by addition of 25 μl of 2× electrophoresis buffer (Invitrogen). [^32P]AMP was generated by incubation (37° C., 3 h) of 10 μM [^32P] NAD (10 μCi/reaction) with pyrophosphatase (40 units/mg from SIGMA, 1 mg/ml) in 25 μl of 50 mM KPO4, pH 7.5, and 10 mM MgCl2. [^32P] ADP-ribose was generated in a 25 μl mixture containing 50 mM KPO4, pH 7.5, 25 μg of activated CTA, 10 μM [^32P] NAD (10 μCi/reaction), 10 mM MgCl2, and 5 mM DTT, which was incubated at 30° C. overnight. [^32P] phosphoribosyl-AMP was generated by incubation (37° C., 3 h) of [^32P]poly(ADP-ribose) (5.5×10^5 cpm, ˜300 nM ADP-ribose) with Crotalus adamanteus phosphodiesterase (10 mU/reaction), 25 μl of 50 mM KPO4, pH 7.5, 10 mM MgCl2, and 5 mM DTT. Identities of AMP and ADP-ribose standards were confirmed by HPLC on C18 and SAX columns respectively.
High resolution Polyacrylamide Gel Electrophoresis (PAGE). Polyacrylamide (20%) gels (20×20×0.15 cm) containing polyacrylamide and bis(acrylamide), in a ratio of 19:1, 100 mM Tris-borate, pH 8.3, 2 mM EDTA, 4.4 mM ammonium persulfate, and 3.4 mM TEMED with electrophoresis carried out for 2 h at 400V with 50 mM Tris-borate, pH 8.3, 1 mM EDTA, before application of samples (15 μl) were used for analysis of poly(ADP-ribose) degradation. Subsequent electrophoresis at 400V was stopped when bromophenol blue (BPB) had moved 9 cm from the origin. Gels were exposed to X-ray films (Kodak).
HPLC analysis. HPLC, Hewlett-Packard series 1100 equipped with a diode-array spectrophotometric detector set at 254 nm, was used for separation of reaction products. For anion exchange perfusion chromatography, Zorbax SAX column (4.6×250 mm; DuPont, Wilmington Del.) was washed with 20 mM potassium phosphate, pH 4.5, for 30 min, followed by a linear gradient of 0-1M NaCl in the same buffer for 10 min (30-40 min), then same buffer with 1M NaCl for 10 min (40-50 min) at a flow rate of 1 ml/min. Nicotinamide was eluted at 3 min, NAD at 10 min, and ADP-ribose at 40 min. For reverse phase, Discovery C18 column (4.6×250 mm; SUPELCO, Bellefonte Pa.) was used. Samples were separated isocratically with 100 mM potassium phosphate, pH 6.0 containing 7% methanol at a same flow rate of 1 ml/min. ADP-ribose was eluted at 6 min, NAD at 8 min, nicotinamide 9 min.
Poly(ADP-ribose)PARP was used as substrate to assay potential poly(ADP-ribose) hydrolase activities of recombinant ARH1, 2 or 3. Products were identified by autoradiography and HPLC. Fractions (1 ml) were collected for liquid scintillation counting to quantify [^14C]ADP-ribose, which was eluted in fractions from 34 min to 43 min. Because ARH1 activity may require both DTT and Mg^2+, depending on species (Takada et al. (1993) J. Biol. Chem. 268:17837-17843; Moss et al. (1992) J. Biol. Chem. 267:10481-10488), these reactions were performed with or without 10 mM MgCl2, and/or 5 mM DTT. […] Degradation of [^32P]poly(ADP-ribose) by ARH3 was enhanced by 10 mM MgCl2 (FIG. 4A). Data were similar with mouse ARH3.
Samples of [^14C] ADP-ribosylated PARP (250 ng, 15,000 cpm, ˜850 nM ADP-ribose) were incubated at 37° C. (total volume, 100 μl) with human ARH3 as indicated. […]

ADP-ribose binding assay = conditions: 1 μM ARH3, 3 μM [14C]ADP-ribose, 30° C., 16 h
Method: ADP-ribose binding assay. [^14C]ADP-ribose was generated by incubation overnight at 30° C. of 80 μM (10 μCi) [adenine-U-^14C]NAD with 50 μl of RT6.2 solution (5 nmol/h NADase activity; gift from Dr. Sunhee Park, NHLBI, National Institutes of Health, Bethesda, Md.) in 250 μl of 50 mM potassium phosphate, pH 7.5, and purified by HPLC using Zorbax Sax column as described above. [^14C]ADP-ribose, eluted at 40 min, was stored at −20° C.
To assess protein binding, 1 μM human wild type or D77N/D78N mutant ARH3 was incubated (30° C., 16 h) with 3 μM [^14C]ADP-ribose in 50 mM potassium phosphate buffer, pH 7.5, without or with 10 mM MgCl2, and/or 5 mM DTT (total volume 100 μl). A sample (90 μl) was applied to a column (0.5×4 cm) of Affi-Gel boronate (100 mg, Bio-Rad) which was equilibrated with 0.1 M glycine, pH 9.0, containing 0.1 M NaCl, with or without 10 mM MgCl2, and/or 5 mM DTT, and eluted with five 1-ml portions of the same solution. The total eluate, containing ARH with bound ADP-ribose was collected for liquid scintillation counting.
After incubation of wild-type or mutant ARH3 (1 μM) with [^14C]ADP-ribose (3 μM) (30° C., 16 h) without or with 10 mM MgCl2 and/or 5 mM DTT (total volume 100 μl), unbound ADP-ribose was removed by binding to Affi-gel boronate (Bio-Rad), and ARH3 with ADP-ribose bound, was collected for radioassay. […]

| Molecule | O-acetyl-ADP-ribose hydrolysis (in words) [1] | Poly(ADP-ribose) hydrolysis (in words) ([2]; 37° C.) | [14C]ADP-ribose binding (ADP-ribose binding assay) | Substrate remaining, [14C]poly(ADP-ribose)PARP ([2]; 40 nM hydrolase, 60 min, 37° C.) | Release of [14C]ADP-ribose from [14C]poly(ADP-ribose)PARP relative to wild-type ARH3 [2] |
| --- | --- | --- | --- | --- | --- |
| B1 | appeared to be inactive | did not | – | – | – |
| B2 | – | hydrolyzed | similar | ~75% | 100% |
| B3 | – | similar | – | – | – |
| B4 | rate similar to wild type | catalytic activities similar to that of the wild-type enzyme | – | – | ~98% |
| B5 | rate similar to wild type | catalytic activities similar to that of the wild-type enzyme | – | – | ~97% |
